From patent US20250346679A1 (INVOX PHARMA, published 2025)

How the values were obtained:
[1] = molecular target: T1, human PD-L1, cell-surface (human, UniProt Q9NZQ7 19-290); experiment: cell-based or functional assay
[2] = molecular target: T2, hPD-L1-His-Avi (human); experiment: SPR, mAb^2 captured on immobilised human PD-L1 His, then hCD137-mFc-Avi (100 nM) in flow
T2 construct: also called human PD-L1-His Avi; Human PD-L1 His

[3] = molecular target: T3, biotinylated hPD-L1-Avi-His (Acro Biosystems, PD1-H82E5) (human, UniProt Q9NZQ7 19-238, biotinylated); experiment: SPR, mAb^2 captured on Protein A chip, antigen in flow
T3 construct: bought; also called Human PD-L1-His; not shown: Avi and His tags of the bought product
Experimental: (§1) Briefly, the anti-human CD137/PD-L1 mAb², diluted in HBS-EP buffer (GE Healthcare, BR100188) at 2 μg/ml, were injected individually on flows cell 2, 3 and 4 of a Protein A chip (GE Healthcare, 29127556) at 30 μl/min to achieve a final response of approximately 110 RU. Two different recombinant human PD-L1 antigens were used i.e. hPD-L1-His-Avi (see Example 1.3 for antigen details) and biotinylated hPD-L1-Avi-His (Acrobiosystems, PD-1-H82E5). Human and cynomolgus PD-L1-His (Acrobiosystems, PD-1-C52H4) antigens, diluted in HBS-EP buffer, were injected on flow cell 1, 2, 3 or 4 as appropriate at a concentration range of 81 nM to 0.037 nM with 3-fold dilutions for 4 min at 75 μl/min and then allowed to dissociate in buffer for 10 min. Regeneration was achieved by injecting 10 mM glycine-HCL pH1.5 (GE Healthcare, Human Antibody Capture Kit, BR00356) for 30 sec at a rate of 30 μl/min. Subtracted data (flow cell 2−flow cell 1, flow cell 3−flow cell 1, or flow cell 4−flow cell 1) were analysed using BIAevaluation 3.2 Software (GE Healthcare) to identify binding using the model 1:1 binding with mass transfer, with refractive index (RI) constant 0.

[4] = molecular target: T4, cPD-L1-His (Acro Biosystems, PD1-C52H4) (cynomolgus, UniProt Q9NZQ7 19-238 (human entry)); experiment: as above
T4 construct: bought; also called Cyno PD-L1-His; Cynomolgus PD-L1-His; not shown: His tag of the bought product
Experimental: as §1

[5] = molecular target: T5, human CD137, cell-surface (human, UniProt Q07011 24-255); experiment: cell-based or functional assay
[6] = molecular target: T5, human CD137, cell-surface; experiment: cell-based or functional assay; remark: listed apart in the source
[7] = molecular target: T6, cynomolgus CD137, cell-surface (cynomolgus, UniProt Q07011 24-255 (human entry)); experiment: cell-based or functional assay
T6 chain: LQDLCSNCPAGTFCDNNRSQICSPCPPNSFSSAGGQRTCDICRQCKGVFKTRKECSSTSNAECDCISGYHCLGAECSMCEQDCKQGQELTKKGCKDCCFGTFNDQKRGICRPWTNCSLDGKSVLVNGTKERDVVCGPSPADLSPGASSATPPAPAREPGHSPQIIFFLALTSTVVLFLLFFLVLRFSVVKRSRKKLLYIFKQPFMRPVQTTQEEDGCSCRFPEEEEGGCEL

[8] = molecular target: T6, cynomolgus CD137, cell-surface; experiment: flow cytometry on DO11.10.cCD137
Experimental: Non-specific binding was also assessed by testing binding to DO11.10 cells lacking CD137 expression.
Briefly, DO11.10, DO11.10.hCD137 or DO11.10.cCD137 suspensions were prepared in FACS buffer (DPBS containing (Gibco, 14190-094) containing 0.5% BSA (Sigma, A7906)) and seeded at 1×10⁵ cell/well in 100 μl in round bottomed 96-well plates (VWR, 734-1797). […] The washed cells were resuspended in the diluted antibody mixture, incubated at 4° C. for 30 minutes, and then washed once in FACS buffer. […] Dead cells were excluded and the fluorescence in the APC channel (638 nm 660/20) was measured. The geometric mean fluorescence intensity (GMFI) values were plotted vs the log concentration of antibody and the resulting curves were fitted using the log (agonist) vs response equation in GraphPad Prism.

[9] = molecular target: T6, cynomolgus CD137, cell-surface; experiment: cell-based or functional assay
[10] = molecular target: T5, human CD137, cell-surface; experiment: cell-based or functional assay; remark: listed apart in the source
[11] = molecular target: T1, human PD-L1, cell-surface; experiment: flow cytometry on activated primary human CD8+ T cells (carry PD-L1 and CD137); activated primary human CD8+ T cells (carry PD-L1 and little CD137)
Experimental: CD137 is rapidly expressed to high levels on activated CD8⁺ T cells and also on activated CD4⁺ T cells with lower levels (Xue-Zhong Yu et al, 2013), therefore Pan T cells were stimulated for 24 hours using Dynabeads™ Human T-Activator CD3/CD28 beads (Thermo, 11132D) according to manufacturer's instructions.
Dead cells were excluded and the fluorescence in the APC channel (638 nm 660/20) was measured to show test antibody binding. The geometric Mean Fluorescence Intensity (GMFI) values were plotted vs the log concentration of antibody and the resulting curves were fitted using the log (agonist) vs response equation in GraphPad Prism.

T1 sequence (Q9NZQ7 19-290): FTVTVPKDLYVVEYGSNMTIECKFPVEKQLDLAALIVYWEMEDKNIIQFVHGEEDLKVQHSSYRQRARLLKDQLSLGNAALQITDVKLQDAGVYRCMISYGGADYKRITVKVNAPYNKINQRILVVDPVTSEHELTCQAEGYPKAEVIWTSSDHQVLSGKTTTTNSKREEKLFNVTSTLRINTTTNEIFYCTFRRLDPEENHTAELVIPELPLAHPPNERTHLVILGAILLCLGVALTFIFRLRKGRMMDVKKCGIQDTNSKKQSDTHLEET
T4 sequence (Q9NZQ7 other isoform, or with tags, fused parts or gaps): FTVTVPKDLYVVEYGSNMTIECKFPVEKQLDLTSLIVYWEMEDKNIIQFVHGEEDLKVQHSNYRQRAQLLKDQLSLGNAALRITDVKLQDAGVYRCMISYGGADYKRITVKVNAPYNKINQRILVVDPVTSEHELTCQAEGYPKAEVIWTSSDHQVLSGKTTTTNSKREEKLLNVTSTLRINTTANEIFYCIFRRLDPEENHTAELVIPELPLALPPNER
T2 sequence (chain, as listed by the source limits assumed): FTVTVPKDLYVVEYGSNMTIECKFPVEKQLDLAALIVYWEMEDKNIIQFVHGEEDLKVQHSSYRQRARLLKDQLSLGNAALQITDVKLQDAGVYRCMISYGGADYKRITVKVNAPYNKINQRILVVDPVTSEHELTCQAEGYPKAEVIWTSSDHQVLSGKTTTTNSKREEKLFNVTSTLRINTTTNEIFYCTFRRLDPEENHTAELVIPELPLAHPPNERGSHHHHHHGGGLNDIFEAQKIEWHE
T3 sequence (Q9NZQ7 19-238): as the sequence (Q9NZQ7 other isoform, or with tags, fused parts or gaps) above, with T33A, S34A, N62S, Q68R, R82Q, L173F, A185T, I192T, L215H counted along it

B1: FS22-172-003-AA/E12v2 (bispecific antibody, human IgG1, kappa, L234A L235A)
heavy: EVQLVQSGAEVKRPGASVKVSCKASGYPFTSYGISWVRQAPGQGLEWMGWISAYSGGTNYAQKLQGRVTMTTDTSTSTAYMELRSLRSDDTAVYYCARDLFPTIFGVSYYYYWGQGTLVTVSSASTKGPSVFPLAPSSKSTSGGTAALGCLVKDYFPEPVTVSWNSGALTSGVHTFPAVLQSSGLYSLSSVVTVPSSSLGTQTYICNVNHKPSNTKVDKKVEPKSCDKTHTCPPCPAPEAAGGPSVFLFPPKPKDTLMISRTPEVTCVVVDVSHEDPEVKFNWYVDGVEVHNAKTKPREEQYNSTYRVVSVLTVLHQDWLNGKEYKCKVSNKALPAPIEKTISKAKGQPREPQVYTLPPSRDELPYIIPPYNQVSLTCLVKGFYPSDIAVEWESNGQPENNYKTTPPVLDSDGSFFLYSKLTVGADRWLEGNVFSCSVMHEALHNHYTQKSLSLSPG
light: DIQMTQSPSTLSASVRDRVIITCRASQSIGNRLAWYQHKPGKAPKLLIYEASTSETGVPSRFSGSGSGTDFTLTISSLQPEDFATYYCQQSYSTPYTFGQGTKLEIKRTVAAPSVFIFPPSDEQLKSGTASVVCLLNNFYPREAKVQWKVDNALQSGNSQESVTEQDSKDSTYSLSSTLTLSKADYEKHKVYACEVTHQGLSSPVTKSFNRGEC
notes: PD-L1 site in the Fab, CD137 site in the CH3, LALA; also called anti-human CD137/PD-L1 mAb^2
In the case of B1, the “EC50 (nM), mouse IL-2 release, DO11.10 / LK35.2 PD-L1 blockade assay” value [1] is reported as 1.27 nM, the binding result [2] is reported as “binds” and the Kd [3] is reported as 190 pM. The Kd [4] was 360 pM, the “EC50 (nM), IFN-γ release, CEFT antigen recall assay (CD4+ T cell activation)” value [5] was 0.08 nM and the “EC50 (nM), hIL-2 release, CD8+ T cells, donor 171115A, HEK.hPD-L1 XL” value [6] was 0.24 nM. The “EC50 (nM), hIL-2 release, CD8+ T cells, donor 171115A, MDA-MB-231 XL” value [6] was 0.02 nM, the “EC50 (nM), hIL-2 release, CD8+ T cells, donor 171115B, HEK.hPD-L1 XL” value [6] was 0.31 nM and the “EC50 (nM), hIL-2 release, CD8+ T cells, donor 171115B, MDA-MB-231 XL” value [6] was 0.02 nM. For the same binder, the “EC50 (nM) (crosslinked), mIL-2 release, DO11.10.cCD137 with HEK.cyPD-L1” value [7] was 0.06 nM, the “Emax (pg/ml) (crosslinked), mIL-2 release, DO11.10.cCD137 with HEK.cyPD-L1” value [7] was 11300 pg/mL and the EC50 [8] was 7390 pM. The “EC50, IFN-γ release, cynomolgus PBMC assay” value [9] was 80 pM, the “EC50, IFN-γ release, human PBMC assay” value [10] was 30 pM and the EC50 [11] was 900 pM.
